Experimental data published in publication PMC4741471 (Oncotarget, 2015).

Molecular target: the molecule itself
Experiment: non-reducing SDS-PAGE without heating

B1: cholera toxin B subunit (recombinant, His6-tagged CTB) (natural protein)
chain: TPQNITDLCAEYHNTQIYTLNDKIFSYTESLAGKREMAIITFKNGAIFQVEVPGSQHIDSQKKAIERMKDTLRIAYLTEAKVEKLCVWNNKTPHAIAAISMAN
- stoichiometry N: 5
